Where a SMILES comes first, the peptide text is derived from it. [ ]: non-standard residue; d: D form. The star is where a group is joined. Dolaproine = CO[C@@H]([C@@H]1CCCN1)[C@@H](C)C(=O)O; Dil = CC[C@H](C)[C@H](NC)[C@@H](CC(=O)O)OC; X1 = C[C@@H](N*)[C@@H](O)c1ccccc1; NMeV = CN[C@H](C(=O)O)C(C)C
Assays:
[1] = test system: NCI-H292, MDA-MB-468, and NCI-H322 CDX tumors; test: Tumor MMAE accumulation after BT8009 in CDX models; format: in vivo, mouse; details: after administration of BT8009, three CDX models, n = 3 per timepoint, LC/MS-MS
[2] = biological target: T1, endogenous Nectin-4 expressed on the cell membrane of MDA-MB-468 cells (Homo sapiens, UniProt Q96NY8); test: High content imaging of binding to live MDA-MB-468 cells; details: anti-MMAE antibody detection
T1 sequence (Q96NY8 32-510): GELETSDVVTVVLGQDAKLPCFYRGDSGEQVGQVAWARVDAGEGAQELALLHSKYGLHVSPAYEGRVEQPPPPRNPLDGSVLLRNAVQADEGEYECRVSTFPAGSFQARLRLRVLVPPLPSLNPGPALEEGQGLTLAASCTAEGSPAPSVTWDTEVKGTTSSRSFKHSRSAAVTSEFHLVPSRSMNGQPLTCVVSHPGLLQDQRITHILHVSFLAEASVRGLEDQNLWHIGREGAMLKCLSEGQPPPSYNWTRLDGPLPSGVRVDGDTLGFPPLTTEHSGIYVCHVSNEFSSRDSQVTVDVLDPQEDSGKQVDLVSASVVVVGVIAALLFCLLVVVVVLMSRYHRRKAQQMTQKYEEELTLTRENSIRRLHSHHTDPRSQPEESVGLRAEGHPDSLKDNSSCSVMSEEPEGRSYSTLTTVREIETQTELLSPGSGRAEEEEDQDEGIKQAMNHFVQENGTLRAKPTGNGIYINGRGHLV

[3] = biological target: endogenous Nectin-4 expressed on the cell membrane of MDA-MB-468 cells (human (endogenous in MDA-MB-468)) (UniProt Q96NY8); test: high content imaging of binding to live cells
hNecl1 (human) = hNecl1 (human) (UniProt Q8N126); test: SPR
hNecl2 (human) = hNecl2 (human) (UniProt Q9BY67); test: SPR
hNecl3 (human) = hNecl3 (human) (UniProt Q8N3J6); test: SPR
hNecl4 (human) = hNecl4 (human) (UniProt Q8NFZ8); test: SPR
hNecl5 (human) = hNecl5 (human) (UniProt P15151); test: SPR
hNectin1 (human) = hNectin1 (human) (UniProt Q15223); test: SPR
hNectin2 (human) = hNectin2 (human) (UniProt Q92692); test: SPR
hNectin3 (human) = hNectin3 (human) (UniProt Q9NQS3); test: SPR
[4] = biological target: human Nectin-4 extra-cellular domain (human) (UniProt Q96NY8); test: SPR
Nectin-4 = test: SPR of Nectin-4 ADC; format: binding; details: read-out: KD for Nectin-4, chip coated with ADC, protein passed over it
LU-01–0412 PDX = test: LU-01–0412 lung PDX model; format: in vivo, mouse; details: PDX NSCLC, Fig. 6D; rate and degree of regression comparable
[5] = test system: head and neck PDX (HN-13–001); test: Head and neck PDX model; format: in vivo, mouse; details: dosed initially at 5 mg/kg (D0, D7) and subsequently 10 mg/kg (D14)
[6] = In ICR SCID mouse; ref Enfortumab vedotin data from literature; cited from earlier work
[7] = terminal plasma half-life; ref EV multi-disciplinary review and evaluation; cited from earlier work
[8] = terminal plasma half-life; ref EV multi-disciplinary review and evaluation; cited from earlier work; remark: listed apart in the source

hNecl2 (human), sequence (Q9BY67 45-442): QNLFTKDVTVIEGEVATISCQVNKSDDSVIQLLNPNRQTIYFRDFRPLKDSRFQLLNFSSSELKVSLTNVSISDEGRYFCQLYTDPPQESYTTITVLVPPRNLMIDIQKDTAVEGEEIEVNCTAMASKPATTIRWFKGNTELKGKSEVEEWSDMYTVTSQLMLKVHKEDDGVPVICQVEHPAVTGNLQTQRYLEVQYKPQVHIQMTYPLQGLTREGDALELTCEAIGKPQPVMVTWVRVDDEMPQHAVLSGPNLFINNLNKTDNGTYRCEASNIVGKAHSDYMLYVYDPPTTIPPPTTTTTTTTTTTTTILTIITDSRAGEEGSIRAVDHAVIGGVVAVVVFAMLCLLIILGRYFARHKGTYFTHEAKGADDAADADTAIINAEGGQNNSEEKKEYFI
hNectin1 (human), sequence (Q15223 31-517): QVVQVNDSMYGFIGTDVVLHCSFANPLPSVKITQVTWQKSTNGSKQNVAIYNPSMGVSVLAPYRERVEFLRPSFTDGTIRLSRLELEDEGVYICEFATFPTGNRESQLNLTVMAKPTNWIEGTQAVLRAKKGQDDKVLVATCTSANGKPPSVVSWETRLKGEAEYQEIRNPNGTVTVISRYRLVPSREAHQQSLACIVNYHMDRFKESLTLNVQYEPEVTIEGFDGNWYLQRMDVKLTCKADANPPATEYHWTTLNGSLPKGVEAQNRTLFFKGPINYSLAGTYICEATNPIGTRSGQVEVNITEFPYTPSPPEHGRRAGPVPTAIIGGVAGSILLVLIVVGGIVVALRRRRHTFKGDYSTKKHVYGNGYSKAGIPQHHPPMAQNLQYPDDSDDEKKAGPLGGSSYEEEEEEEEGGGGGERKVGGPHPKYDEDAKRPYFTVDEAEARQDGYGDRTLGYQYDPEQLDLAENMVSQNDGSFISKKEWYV
hNecl1 (human), sequence (Q8N126 25-398): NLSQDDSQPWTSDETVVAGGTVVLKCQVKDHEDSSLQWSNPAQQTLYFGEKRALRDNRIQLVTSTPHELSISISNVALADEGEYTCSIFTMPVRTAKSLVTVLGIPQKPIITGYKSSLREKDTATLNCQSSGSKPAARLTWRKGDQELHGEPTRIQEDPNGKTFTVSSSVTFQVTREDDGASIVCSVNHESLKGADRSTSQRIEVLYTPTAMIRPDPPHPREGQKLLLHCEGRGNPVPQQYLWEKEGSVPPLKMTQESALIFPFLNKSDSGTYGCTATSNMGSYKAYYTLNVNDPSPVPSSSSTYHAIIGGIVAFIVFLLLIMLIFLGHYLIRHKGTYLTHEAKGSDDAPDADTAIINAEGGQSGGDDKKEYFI
hNectin3 (human), sequence (Q9NQS3 58-549): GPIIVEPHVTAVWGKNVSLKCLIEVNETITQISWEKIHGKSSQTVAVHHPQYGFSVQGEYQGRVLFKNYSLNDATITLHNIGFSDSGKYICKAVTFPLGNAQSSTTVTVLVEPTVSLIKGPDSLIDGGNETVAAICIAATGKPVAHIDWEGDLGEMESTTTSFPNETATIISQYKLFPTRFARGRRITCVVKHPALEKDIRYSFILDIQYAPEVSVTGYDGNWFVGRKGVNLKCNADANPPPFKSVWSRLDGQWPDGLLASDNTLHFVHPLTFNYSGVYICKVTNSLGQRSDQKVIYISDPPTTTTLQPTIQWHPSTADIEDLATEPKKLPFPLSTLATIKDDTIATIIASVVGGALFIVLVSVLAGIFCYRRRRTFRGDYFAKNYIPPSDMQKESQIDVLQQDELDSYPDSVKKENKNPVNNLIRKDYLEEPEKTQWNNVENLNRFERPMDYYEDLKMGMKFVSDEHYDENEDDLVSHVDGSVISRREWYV
hNectin2 (human), sequence (Q92692 32-538): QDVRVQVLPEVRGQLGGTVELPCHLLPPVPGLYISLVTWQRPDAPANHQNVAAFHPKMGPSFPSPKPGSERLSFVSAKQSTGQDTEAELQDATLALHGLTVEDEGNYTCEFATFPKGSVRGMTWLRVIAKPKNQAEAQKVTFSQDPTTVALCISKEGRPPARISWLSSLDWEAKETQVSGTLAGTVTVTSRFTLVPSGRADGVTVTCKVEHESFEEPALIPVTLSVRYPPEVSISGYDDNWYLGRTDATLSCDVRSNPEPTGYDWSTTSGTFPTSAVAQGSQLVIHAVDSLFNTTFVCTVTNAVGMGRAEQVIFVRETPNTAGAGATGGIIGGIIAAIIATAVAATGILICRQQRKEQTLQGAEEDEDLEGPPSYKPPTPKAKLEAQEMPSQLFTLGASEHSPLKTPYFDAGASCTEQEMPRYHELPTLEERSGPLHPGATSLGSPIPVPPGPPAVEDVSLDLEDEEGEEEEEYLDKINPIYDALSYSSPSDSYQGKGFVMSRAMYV
hNecl5 (human), sequence (P15151 21-417): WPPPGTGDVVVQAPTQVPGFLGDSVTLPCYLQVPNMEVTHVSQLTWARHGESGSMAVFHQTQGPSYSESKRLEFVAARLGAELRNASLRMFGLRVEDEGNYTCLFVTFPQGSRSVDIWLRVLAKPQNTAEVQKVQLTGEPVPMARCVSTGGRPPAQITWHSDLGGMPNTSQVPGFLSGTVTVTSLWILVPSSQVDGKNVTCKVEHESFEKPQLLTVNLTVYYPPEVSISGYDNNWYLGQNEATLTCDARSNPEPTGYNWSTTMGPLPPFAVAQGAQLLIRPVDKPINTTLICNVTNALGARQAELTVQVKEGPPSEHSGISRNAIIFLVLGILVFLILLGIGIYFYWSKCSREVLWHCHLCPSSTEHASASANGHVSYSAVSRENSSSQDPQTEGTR
hNecl3 (human), sequence (Q8N3J6 25-435): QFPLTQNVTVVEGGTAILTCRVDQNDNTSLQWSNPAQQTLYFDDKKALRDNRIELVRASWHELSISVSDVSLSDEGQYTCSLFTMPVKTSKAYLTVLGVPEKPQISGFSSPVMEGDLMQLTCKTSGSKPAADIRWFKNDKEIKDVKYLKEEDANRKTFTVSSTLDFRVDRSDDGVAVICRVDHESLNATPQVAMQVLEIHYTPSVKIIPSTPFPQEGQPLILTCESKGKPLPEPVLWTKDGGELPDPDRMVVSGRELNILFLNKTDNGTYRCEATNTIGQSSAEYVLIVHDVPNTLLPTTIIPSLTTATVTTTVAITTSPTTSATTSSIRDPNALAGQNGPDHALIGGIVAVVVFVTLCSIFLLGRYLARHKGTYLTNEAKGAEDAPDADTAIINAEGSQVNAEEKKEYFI
hNecl4 (human), sequence (Q8NFZ8 21-388): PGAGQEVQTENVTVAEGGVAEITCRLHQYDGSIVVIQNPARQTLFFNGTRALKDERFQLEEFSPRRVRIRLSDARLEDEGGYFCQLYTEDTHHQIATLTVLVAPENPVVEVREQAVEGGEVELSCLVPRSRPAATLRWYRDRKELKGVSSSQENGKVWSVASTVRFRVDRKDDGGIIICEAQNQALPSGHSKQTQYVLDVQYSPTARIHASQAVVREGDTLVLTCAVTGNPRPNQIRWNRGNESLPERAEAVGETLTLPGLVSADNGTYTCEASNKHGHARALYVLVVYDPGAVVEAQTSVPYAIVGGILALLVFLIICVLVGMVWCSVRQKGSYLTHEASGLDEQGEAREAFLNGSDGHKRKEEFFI

## CC[C@H](C)[C@@H]([C@@H](CC(=O)N1CCC[C@H]1[C@H](OC)[C@@H](C)C(=O)N[C@H](C)[C@@H](O)c1ccccc1)OC)N(C)C(=O)[C@@H](NC(=O)[C@@H](NC)C(C)C)C(C)C [MMAE, mono-methylauristatin E] (H-[NMeV]V[Dil][Dolaproine]-X1)
[1]
  time to peak tumor concentrations of total MMAE: 2 to 4 h
[2]; MDA-MB-468 cells, 4°C
  affinity for the cells (in words): no affinity

## BCY8781 (peptide)
[3]
  Kd: > 10 µM

## BT8009 (peptide)
hNecl1 (human)
  Kd: > 20 µM
hNecl2 (human)
  Kd: > 20 µM
hNecl3 (human)
  Kd: > 20 µM
hNecl4 (human)
  Kd: > 20 µM
hNecl5 (human)
  Kd: > 20 µM
hNectin1 (human)
  Kd: > 20 µM
hNectin2 (human)
  Kd: > 20 µM
hNectin3 (human)
  Kd: > 20 µM
[4]
  Kd: 0.0025 µM
[3]
  Kd: 0.0129 µM

## Nectin-4 ADC: in-house EV analog; enfortumab-sequence antibody conjugated with MC-VC-PAB MMAE, 152kDa, DAR 3.98
Nectin-4
  Kd: 0.0012 to 0.0046 µM
LU-01–0412 PDX
  tumor regrowth after treatment cessation: tumor regrowth from drug cessation
[5]
  antitumor response, ADC: minimally reduced tumor growth rate
[2]; 45 minutes at 4°C
  Bmax(RFU) on MDA-MB-468 cells: 35.2 ± 2.2 RFU

## enfortumab vedotin [EV]
[6]
  Vdss (L/kg), EV, Mouse: 0.08 L/kg
[7]
  EV t1/2 rat: 24 to 31.2 h
[8]
  EV t1/2 NHP: 17 to 40.8 h

Reference: article PMC9940631 (Molecular Cancer Therapeutics, 2022)
